In US20060127402A1 (TECHNION RESEARCH AND DEVELOPMENT FOUNDATION, published 2006):

Target: T1, LOR-1 (lysyl oxidase related protein-1) (human, UniProt Q9Y4K0 26-774, limits assumed)
T1 construct: also called hLOR1
T1 sequence: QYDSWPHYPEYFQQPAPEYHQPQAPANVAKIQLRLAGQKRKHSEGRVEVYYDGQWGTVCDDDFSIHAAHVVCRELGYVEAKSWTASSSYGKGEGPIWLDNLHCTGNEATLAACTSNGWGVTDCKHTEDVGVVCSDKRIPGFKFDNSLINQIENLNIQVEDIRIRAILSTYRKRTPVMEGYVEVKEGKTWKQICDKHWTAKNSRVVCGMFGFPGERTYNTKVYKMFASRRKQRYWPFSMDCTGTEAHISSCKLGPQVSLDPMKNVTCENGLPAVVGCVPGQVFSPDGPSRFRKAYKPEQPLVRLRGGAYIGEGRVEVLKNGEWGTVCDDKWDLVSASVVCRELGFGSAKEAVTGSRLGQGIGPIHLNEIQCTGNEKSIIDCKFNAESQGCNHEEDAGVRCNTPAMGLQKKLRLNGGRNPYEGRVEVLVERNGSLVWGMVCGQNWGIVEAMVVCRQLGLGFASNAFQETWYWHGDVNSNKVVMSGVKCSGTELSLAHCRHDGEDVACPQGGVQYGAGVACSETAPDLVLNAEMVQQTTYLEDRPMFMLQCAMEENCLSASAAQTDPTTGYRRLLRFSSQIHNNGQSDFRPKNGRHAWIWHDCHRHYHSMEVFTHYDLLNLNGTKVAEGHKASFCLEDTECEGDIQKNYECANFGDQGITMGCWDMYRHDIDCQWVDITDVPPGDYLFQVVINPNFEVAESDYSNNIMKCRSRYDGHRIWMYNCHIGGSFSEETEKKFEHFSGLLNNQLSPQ
Experiment: PF4 affinity column, 35S-methionine labeled cells, SDS-PAGE

binding result: binds
B1: Human recombinant platelet factor-4 (PF4, GenBank Accession number M20901) (ligand, UniProt P02776 32-101, looked up)
chain: EAEEDGDLQCLCVKTTSQVRPRHITSLEVIKAGPHCPTAQLIATLKNGRKICLDLQAPLYKKIIKKLLES
notes: Supplied by Repligen Corp
